# Source: patent publication US20240228986A1, “ENGINEERED CELLS, ENZYMES, AND METHODS FOR PRODUCING CANNABINOIDS” (priority 2021, published 2024)
# Positions count from the first letter of the chain named.
# B1: MPT4.1 (protein)
# chain: MSDNSIATKILNFGHTCWKLQRPYAVKGMISIACGLFGRELFNNRHLFSWGLMWKAFFALVPILSFNFFAAIMNQIYDVDIDRINKPDLPLVSGEMSIETAWILSIIVALTGLIVTIKLKSAPLFVFIYIFGIFAGFAYSVPPIRWKQYPFTNFLITISSHVGLAFTSYSATTSALGLPFVWRPAFSFIIAFMTVMGMTIAFAKDISDIEGDAKYGVSTVATKLGARNMTFVVSGVLLLNYLVSISIGIIWPQVFKSNIMILSHAILAFCLIFQTRELALANYASAPSRQFFEFIWLLYYAEYFVYVFI
# modifications: MPT4.1 (point mutant, membrane-bound prenyltransferase)
# B2: APT73.74: recombinant soluble aromatic prenyltransferase, SEQ ID NO: 37 (protein)
# chain: MDEVYAAVEQTSRLLDVPCSPDRFEPVWKAFGDQLPDSHLVFSMAAGEAHRGELDFDFSLRPEGADPYTTALEHGFIEPTDHPVGSVLAEVGKRFAIASYGVEYGVVGGFKKSYAFFPLDDFPPLAQFAEVPSVPPCLAGHVETLTRLGFDDKVSIIGVNYRKNTLNVYLAASAVDTGDKLALLRAFGYPEPDARVRQFIERSFRLYPTFNWDSSAAERICFAVHTQQPGELPAPHDEPTEAFARQVPHVYEGGREFVSGVALAPSGASYYKLAALYQKARRCLH
# modifications: APT73.74 (mutant soluble aromatic prenyltransferase)
# B3: APT73.77: recombinant soluble aromatic prenyltransferase, SEQ ID NO: 38 (protein)
# chain: B2 chain with H285D
# modifications: APT73.77 (mutant soluble aromatic prenyltransferase)
# B4: MPT21.8 (protein)
# chain: MSDNSIATKILNFGHTCWKLQRPYVVKGMISIACGLFGKELLHNTNLISWGLMWKAFFALVPILSFNFFAGIMNQIYDVDIDRINKPDLPLVSGEMSIETAWILSIIVALTGLIVTIKLKSAPLFVFIYIFGIFAGFAYSVPPIRWKQNPSTNFLITISSHVGLAFTSYYASRAALGLPFELRPSFTFLLAFMTVMGMTIAFAKDISDIEGDAKYGVSTVATKLGARNMTFVVSGVLLLNYVAAILAGIIWPQAFNSNVMLLSHAILAFCLIFQTRELALANYASAPSRQFFEFIWLLYYAEYFVYVFI
# modifications: MPT21.8 (recombinant membrane-bound prenyltransferase)
# B5: MPT21.10 (protein)
# chain: B4 chain with G71A, I81M
# modifications: MPT21.10 (recombinant membrane-bound prenyltransferase)
# B6: MPT4: membrane-bound prenyltransferase, SEQ ID NO: 2, comparator (protein)
# chain: B1 chain with A25V
# modifications: MPT4 (membrane-bound prenyltransferase)
# Assays:
# Assay type in all cases: cell-based, Yarrowia
# olivetolic acid [1] = experiment: Unfused rMPTs and APTs, CBGA/FCBGA formation in vivo assay (Example 4); settings: for CBGA / FCBGA / CBGA/FCB: 2 mM olivetolic acid, 48 h quench; for CBGA / FCBGA: 2% glucose, strain sCL-SE-0128; for CBGA/FCB: product ratio
# Experimental: (§1) As described below, plasmids pCL-SE-0380 (MPT4), pCL-SE-0337.MPT4, pCL-SE-0338.APT73.74, and pCL-SE-0338.APT73.77 were transformed into strain sCL-SE-0128. Multiple colonies per transformation were precultured for 48 h in YNB containing glucose (2%), casamino acids (0.5%), and MES (100 mM pH 6.5). Pre-culture was used to inoculate assay medium comprised of YNB containing glucose (2%), casamino acids (0.5%), MES (100 mM pH 6.5), and olivetolic acid or divarinic acid (2 mM). Cultures were quenched with equal volume of ethanol after 48 h total growth and assayed for CBG(V)A and FCBG(V)A. Averages and standard deviations were calculated from replicates.
# (§2) Overnight YPD (10 g/L yeast extract, 20 g/L peptone, 2% dextrose) cultures were inoculated from glycerol stocks of the appropriate strain and grown at 30° C. with 250 rpm shaking. Once cultures had reached an OD600 of 4-6, cultures were centrifuged at 500×g for 5 min, supernatants were discarded, and cell pellets were resuspended in equal volume of water. Resuspended cells were centrifuged at 500×g for 5 min, supernatants were discarded, and cells were resuspended in a volume (75 μL×OD×Vculture) of transformation cocktail (45% PEG-400, 0.1 M LiAc, 0.1 M DTT, and 25 ug/100 μL SS Salmon Sperm DNA). For each transformation, >1 μg of plasmid DNA was added to 55 μL cells/transformation cocktail and vortexed for 2 s. Transformations were incubated at 39° C. for 1 h with 250 rpm shaking. Transformations were resuspended in 750 μL YPD with 1 M sorbitol and recovered at 30° C. overnight with 250 rpm shaking. The next day, transformations were centrifuged at 500×g for 5 min, supernatants were discarded, and cell pellets were resuspended in 750 YPD. Resuspended transformations were plated on YPD with appropriate selection or YNBD (6.71 g/L yeast nitrogen base+nitrogen, 0.5% casamino acids, 2% dextrose) agar plates and grown at 30° C. for 2 days. Individual colonies were patched onto YPD plates with appropriate selection or YNBD plates and grown at 30° C. overnight. Patches were used to inoculate 0.5 mL YPD with appropriate selection or YNBD precultures in 96 w blocks and grown at 30° C. for 24-48 h with 1000 rpm shaking. For assays, 0.5 mL YPD with appropriate selection or YNBD cultures containing substrate were inoculated with 2 μL from precultures and grown at 30° C. for 2-4 days with 1000 rpm shaking with 2% glucose added every 24 h. Assay cultures were quenched by addition of 0.5 mL ethanol with 0.2% formic acid and 0.5 mg/mL pentyl-benzoic acid. Precipitates were pelleted by centrifuging at 4600×g for 10 min and then 200 μL was transferred to fresh plates, sealed, and analyzed via HPLC.
# (§3) All samples were quenched with equal volume of EtOH containing 0.2 mg/mL internal standard (3,5-Diisopropyl-2-hydroxybenzoic acid CAS #2215-21-6) centrifuged, and clarified solutions were analyzed by HPLC-MS
# (§4) • Column: 2.1×50 mm COSMOCORE PBr (Nacalai USA, Inc.) • Mobile Phase: A; 0.1% formic acid in water, B; 0.1% formic acid in acetonitrile • Flow: 0.45 mL/min • Temp: % 50 Celsius • Gradient: 20%B at 0 min, 70%B at 2.3 min, 89% B at 4.2 min, 20% B at 4.3 min, 20%B at 6 min
# divarinic acid [2] = experiment: Unfused rMPTs and APTs, CBGVA/FCBGVA formation in vivo assay (Example 4); settings: 2 mM divarinic acid, 48 hour quench; for CBGVA / FCBGVA: 2% glucose, strain sCL-SE-0128
# Experimental: as §1, §2, §3, §4
# olivetolic acid [3] = experiment: MPT4.1 with and without GPS1.1 fusion vs MPT4 fusion, in vivo assay (Example 5); settings: 3 mM olivetolic acid, 48 h quench
# Experimental: (§5) As described below, plasmids pCL-SE-0337.MPT4.1 and pCL-SE-0753 were transformed into strain sCL-SE-0128. Multiple colonies per transformation were precultured for 24 h in YNB containing glucose (2%), casamino acids (0.5%), and MES (100 mM pH 6.5). Pre-culture was used to inoculate assay medium comprised of YNB containing glucose (6%), casamino acids (0.5%), MES (100 mM pH 6.5), and olivetolic acid (3 mM). Cultures were quenched with equal volume of ethanol after 48 h total growth and assayed for CBGA and FCBGA. Averages and standard deviations were calculated from replicates.
# as §2, §3, §4
# olivetolic acid [4] = experiment: GPS-APT fusions, OA feed in vivo assay (Example 11)
# Experimental: as §5, with “pCL-SE-0406, pCL-SE-0664, pCL-SE-0663, pCL-SE-0662, pCL-SE-0380 (MPT4), pCL-SE-0337.MPT21, pCL-SE-0337.MPT26,” for “pCL-SE-0337.MPT4.1”, “pCL-SE-0337.MPT31” for “pCL-SE-0753”, “48” for “24”, “(2%),” for “(6%),”, “(2” for “(3”
# Soluble prenyl transferase APT73.77 was fused with GPS1.1 at the N- or C-terminus with different linkers creating the plasmids shown in Table 14. These fusion proteins were expressed and screened as described in Example 8 (olivetolic acid feed)
# as §2, §3, §4
# olivetolic acid [5] = experiment: GPS1.1 fusions of MPT21 mutants, OA feed (Example 8, Table 10); settings: in words; mutagenesis of MPT21, tested as GPS1.1-F11 fusions
# Experimental: as §2, §3, §4
# olivetolic acid [6] = experiment: Linkers for GPS1.1-MPT4 fusions, in vivo assay (Example 6); settings: 1 mM olivetolic acid, 72 h quench
# Experimental: As described in detail below, plasmids pCL-SE-0380 (MPT4), pCL-SE-0406, pCL-SE-0435, and pCL-SE-0437 were transformed into strain sCL-SE-0128. Four separate colonies per transformation were precultured for 24 h in YNB containing glycerol (2%), casamino acids (0.5%), and MES (100 mM pH 6.5). Pre-culture was used to inoculate assay medium comprised of YNB containing glycerol (2%), casamino acids (0.5%), MES (100 mM pH 6.5), and olivetolic acid (1 mM). Cultures were quenched after 72 h total growth by mixing with equal volume of EtOH. Enzymes produced CBGA and FCBGA. Averages and standard deviations were calculated from replicates.
# However, sCL-SE-0128 expresses HMGR and GPS1.1 to increase intracellular GPP levels for prenylation of OA to CBGA. The plasmids that were transformed contain either a gene expressing a prenyl-transferase (pCL-SE-0380 (MPT4)) or a gene expressing a fusion between GPS1.1 and a prenyl-transferase with different linker sequences.
# as §2, §3, §4
# olivetolic acid [7] = experiment: MPT fusions with GPS1.1 vs unfused MPTs, OA feed (Example 8, Table 9); settings: 2 mM olivetolic acid, 48 h quench
# Experimental: as §5, with “pCL-SE-0406, pCL-SE-0664, pCL-SE-0663, pCL-SE-0662, pCL-SE-0380 (MPT4), pCL-SE-0337.MPT21, pCL-SE-0337.MPT26,” for “pCL-SE-0337.MPT4.1”, “pCL-SE-0337.MPT31” for “pCL-SE-0753”, “48” for “24”, “(2%),” for “(6%),”, “(2” for “(3”
# as §2, §3, §4
# divarinic acid [8] = experiment: MPT fusions with GPS1.1 vs unfused MPTs, DVA feed (Example 9, Table 11); settings: 2 mM divarinic acid, 2% glucose, quenched after 48 h; strain sCL-SE-0128
# Experimental: as §1, with “plasmids pCL-SE-0406, pCL-SE-0664, pCL-SE-0663, pCL-SE-0662,” for “plasmids”, “pCL-SE-0337.MPT21,” for “pCL-SE-0337.MPT4, pCL-SE-0338.APT73.74, and pCL-SE-0338.APT73.77”, “and” for “and olivetolic acid or”, “quenched” for “quenched with equal volume of ethanol”, “CBGVA” for “CBG(V)A”, “FCBGVA.” for “FCBG(V)A.”
# as §2, §3, §4
# [9] = in words, between APT73 mutants
# [10] = olivetolic acid feed as in Example 8, 48 h quench, strain sCL-SE-0128
# [11] = 2% glycerol, strain sCL-SE-0128
Molecule,CBGA (olivetolic acid [1]) [µM],FCBGA (olivetolic acid [1]) [µM],CBGA/FCB (olivetolic acid [1]),CBGVA (divarinic acid [2]) [µM],FCBGVA (divarinic acid [2]) [µM],ratio of CBGA/FCBGA (olivetolic acid [5]),also measured
B1,168 ± 33,11 ± 2,14.6,28 ± 8,0 ± 0,–,"FCBGA byproduct compared to MPT4 (olivetolic acid [1]; in words, OA feed, 48 h): less FCBGA byproduct; activity towards CBGA formation compared to MPT4 (olivetolic acid [1]; in words, OA feed, 48 h): increased activity towards CBGA formation; CBGA (olivetolic acid [3]; 6% glucose, strain sCL-SE-0128): 253 ± 18 µM; FCBGA (olivetolic acid [3]; 6% glucose, strain sCL-SE-0128): 26 ± 2 µM; CBGA/FCBGA (olivetolic acid [3]; product ratio): 9.7"
B2,123 ± 5,18 ± 1,6.7,10 ± 0,0 ± 0,–,selectivity (CBGA/FCBGA) (olivetolic acid [1]; [9]): better selectivity
B3,145 ± 13,55 ± 3,2.6,10 ± 1,1 ± 1,–,"overall activity (CBGA+FCBGA) (olivetolic acid [1]; [9]): better overall activity; CBGVA/FCBGVA (divarinic acid [2]; product ratio): 12.5; CBGA (olivetolic acid [4]; [10]): 215 ± 11 µM; FCBGA (olivetolic acid [4]; [10]): 32 ± 1 µM; CBGA/FCBG (olivetolic acid [4]; olivetolic acid feed, 48 h quench, product ratio): 6.8"
B4,–,–,–,–,–,improved ratio of CBGA/FCBGA,–
B5,–,–,–,–,–,improved ratio of CBGA/FCBGA,–
B6,123 ± 13,23 ± 2,5.3,19 ± 2,0 ± 0,–,"CBGA (olivetolic acid [6]; [11]): 230 ± 15 µM; FCBGA (olivetolic acid [6]; [11]): 51 ± 1 µM; CBGA/FCBGA (olivetolic acid [6]; product ratio): 4.5; CBGA (olivetolic acid [7]; 2% glucose, strain sCL-SE-0128): 123 ± 13 µM; FCBGA (olivetolic acid [7]; 2% glucose, strain sCL-SE-0128): 23 ± 2 µM; CBGA/FCBGA (olivetolic acid [7]; product ratio): 5.3; CBGVA (divarinic acid [8]): 19 ± 2 µM; FCBGVA (divarinic acid [8]): 0 ± 0 µM"
